Read-outs that look alike come from different tables or passages of the source.
Experiments:
[1] = molecular target: T1, human CLDN18.2 (human); assay: FACS, U2OS-CLDN18.2 cells
T1 construct: also called claudin18.2
Method: (§1) Based on the FACS method, the binding activity of anti-CLDN18.2 antibodies for the cell line U2OS-CLDN18.2 overexpressing CLDN18.2 and the cell lines KATOIII (Cell Bank of the Chinese Academy of Sciences) and NUGC-4 (Cell Bank of the Chinese Academy of Sciences) naturally expressing CLDN18.2 was analyzed.
(§2) The cell concentration was adjusted with PBS, and cells (U2OS-CLDN18.2, KATOIII, or NUGC-4 cells) were added to a 96-well plate at 3×10⁵ cells/well, then the test antibodies at different concentrations were added to each well of the 96-well plate, and the mixture was incubated at 4° C. for 60 min. […] The supernatant was discarded, the cells were washed 3 times with pre-cooled PBS buffer, PE-Goat Anti-Human IgG Fcγ (Jackson immunoresearch, Cat. No. 109-116-170) diluted at 1:200 was added at 100 μL/well, and the mixture was incubated at 4° C. for 30 min. Cells were washed 3 times with pre-cooled PBS buffer and resuspended in 100 μL of PBS buffer, and then the fluorescence signals were detected using a flow cytometer (Sartorius, iQUE3). The binding ability of the anti-CLDN18.2 antibodies for CLDN18.2 was measured by mean fluorescence intensity (MFI) of staining.

[2] = molecular target: T1, human CLDN18.2; assay: FACS, U2OS-CLDN18.2 cells; remark: listed apart in the source
Method: as §1, §2

[3] = molecular target: T1, human CLDN18.2; assay: FACS, KATOIII cells (natural CLDN18.2)
Method: as §1, §2

[4] = molecular target: T1, human CLDN18.2; assay: cell-based or functional assay
[5] = molecular target: T1, human CLDN18.2; assay: FACS, NUGC-4 cells (natural CLDN18.2)
Method: (§3) Based on the FACS method, the binding activity of anti-CLDN18.2 humanized antibodies for the cell lines KATOIII (Cell Bank of the Chinese Academy of Sciences) and NUGC-4 (Cell Bank of the Chinese Academy of Sciences) naturally expressing CLDN18.2 was analyzed. […] See Example 3 for the specific method.

[6] = molecular target: T1, human CLDN18.2; assay: FACS, KATOIII cells (natural CLDN18.2); remark: listed apart in the source
Method: as §3

[7] = molecular target: T1, human CLDN18.2; assay: cell-based or functional assay; remark: listed apart in the source
[8] = molecular target: T1, human CLDN18.2; assay: FACS, NUGC-4 cells (natural CLDN18.2); remark: listed apart in the source
Method: as §1, §2

[9] = molecular target: T1, human CLDN18.2; assay: cell-based or functional assay; remark: listed apart in the source
[10] = molecular target: T1, human CLDN18.2; assay: FACS, NUGC-4 cells (natural CLDN18.2); remark: listed apart in the source
Method: as §3

[11] = molecular target: T1, human CLDN18.2; assay: FACS, KATOIII cells (natural CLDN18.2); remark: listed apart in the source
Method: as §3

[12] = molecular target: T1, human CLDN18.2; assay: cell-based or functional assay; remark: listed apart in the source
[13] = molecular target: T1, human CLDN18.2; assay: cell-based or functional assay; remark: listed apart in the source
[14] = molecular target: T1, human CLDN18.2; assay: cell-based or functional assay; remark: listed apart in the source
[15] = molecular target: T1, human CLDN18.2; assay: FACS, U2OS-CLDN18.2 cells; remark: listed apart in the source
Method: as §1, §2

[16] = molecular target: T1, human CLDN18.2; assay: FACS, NUGC-4 cells (natural CLDN18.2); remark: listed apart in the source
Method: as §1, §2

[17] = molecular target: T1, human CLDN18.2; assay: FACS, NUGC-4 cells (natural CLDN18.2); remark: listed apart in the source
Method: as §1, §2

[18] = molecular target: T2, human CLDN18.1 (human, UniProt P56856 1-261); assay: FACS, U2OS-CLDN18.1 cells, antibody at 200 nM
T2 construct: also called claudin18.1
Method: (§4) Based on the FACS method, the binding activity of anti-CLDN18.2 antibodies for the cell line U2OS-CLDN18.1 overexpressing CLDN18.1 (SEQ ID NO: 2) was analyzed. The cell concentration was adjusted with PBS, and the U2OS-CLDN18.1 cells were added to a 96-well plate at 3×10⁵ cells/well, then the test antibodies were added to each well of the 96-well plate, the final concentration of the antibody was 200 nM, and the mixture was incubated at 4° C. for 60 min. The supernatant was discarded, the cells were washed 3 times with pre-cooled PBS buffer, PE-Goat Anti-Human IgG Fcγ (Jackson immunoresearch, Cat. No. 109-116-170) diluted at 1:200 was added at 100 μL/well, and the mixture was incubated at 4° C. for 30 min. Cells were washed 3 times with pre-cooled PBS buffer and resuspended in 100 μL of PBS buffer, and then the fluorescence signals were detected using a flow cytometer (Sartorius, iQUE3). The nonspecific binding of the anti-CLDN18.2 antibodies for U2OS-CLDN18.1 cells was measured by mean fluorescence intensity (MFI) of staining. The IgG1 isotype control antibody (prepared in-house, with the heavy and light chain amino acid sequences as set forth in SEQ ID NOs: 67 and 68 in the present disclosure) was used as the control, and 2-fold the IgG1 isotype control antibody was used as the benchmark, thus determining the presence or absence of nonspecific binding.

[19] = molecular target: T1, human CLDN18.2; assay: FACS, KATOIII cells (natural CLDN18.2); remark: listed apart in the source
Method: as §1, §2

[20] = molecular target: T2, human CLDN18.1; assay: FACS, U2OS-CLDN18.1 cells; MFI against 2-fold the IgG1 isotype control
Method: as §4

[21] = molecular target: T1, human CLDN18.2; assay: cell-based or functional assay; remark: listed apart in the source
[22] = molecular target: T1, human CLDN18.2; assay: cell-based or functional assay; remark: listed apart in the source

Row | EC50 [1] | EC50 [2] | EC50 [3] | CDC EC50, KATOIII target cells [4] | CDC EC50, U2OS-CLDN18.2 target cells [4] | EC50 [5] | EC50 [6] | CDC EC50, NIH-3T3-CLDN18.2 target cells [7] | EC50 [8] | ADCC EC50, Jurkat-CD16a v158-NFAT-luciferase effector cells, NIH-3T3-CLDN18.2 target cells [9] | ADCC EC50, Jurkat-CD16a v158-NFAT-luciferase effector cells, NUGC-4 target cells [9] | EC50 [10] | ADCC EC50, PBMC effector cells, NUGC-4 target cells [12] | ADCC EC50, Jurkat-CD16a v158-NFAT-luciferase effector cells, KATOIII target cells [14] | ADCC EC50, Jurkat-CD16a v158-NFAT-luciferase effector cells, NUGC-4 target cells [14] | ADCC EC50, Jurkat-CD16a v158-NFAT-luciferase effector cells, U2OS-CLDN18.2 target cells [14] | MFI [18] | EC50 [19] | binding result [20] | Binder | ADCC Maximum killing (%), PBMC effector cells, NUGC-4 target cells [12] | also measured
1 |  |  |  | 0.302 nM | 1.77 nM |  |  |  |  |  |  |  | 0.62 nM | 0.064 nM | 0.214 nM | 0.06 nM | 7630 | 1.79 nM | no binding (tested: 200 nM) | chimeric antibody xi34G6 (antibody, human IgG1, kappa, V domains shown, Mouse variable regions on human IgG1/kappa; defucosylated, expressed in FUT8-knockout CHO-S cells; also called chimeric 34G6) VH: QVQLKESGPDLVAPSQSLSITCTVSGFSLTSYGVHWVRQPPGKGLEWLVVIWSDGSTTYNSALKSRLSISKDNSKSQVFLKMNSLQTDDTAIYYCARHAYYGNSFDYWGQGTTLTVSS VL: DIVMTQSPSSLTVTAGEKVTMSCKSSQSLLNSGNQKSYLTWYQQKPGQPPKLLIYWASTRESGVPDRFTGSGSGTDFTLTISSVQAEDLAVYYCQNVYIFPLTFGAGTKLELKR | 40.9% | EC50 [15]: 4.28 nM; EC50 [17]: 19.9 nM
2 |  | 7.78 nM | 3.31 nM | 0.112 nM | 1.58 nM |  | 6.63 nM |  |  |  |  | 44.1 nM | 0.44 nM | 0.03 nM | 0.121 nM | 0.028 nM | 7560 |  | no binding (tested: 200 nM) | chimeric antibody xi28G3 (antibody, human IgG1, kappa, V domains shown, Mouse variable regions on human IgG1/kappa; defucosylated, expressed in FUT8-knockout CHO-S cells; also called chimeric 28G3) VH: EIQLQQTGPELVKPGASVTISCKTSGYSFTDYLMLWVKQSHGKSLEWIGNINPYYGRTTYNLKFKGKATLTVDRSSSTAYMQLNSLTSEDSAVYYCARDGYSLRNAMDYWGQGTSVTVSS VL: DIVMTQSPYSLSVSTGEKVTMSCKSSQSLFNSGNQKNYLAWYQQKPGQPPKLLIYGASTRESGVPDRFTGSGSGTDFTLTISSVQAEDLALYYCQNAHSYPYTFGGGTKLEIKR | 43.3% | ADCC EC50, PBMC effector cells, KATOIII target cells [21]: 0.82 nM; ADCC EC50, PBMC effector cells, NIH-3T3-CLDN18.2 target cells [21]: 0.54 nM; ADCC EC50, PBMC effector cells, NUGC-4 target cells [21]: 3.26 nM; ADCC Maximum killing (%), PBMC effector cells, KATOIII target cells [21]: 29.9%; ADCC Maximum killing (%), PBMC effector cells, NIH-3T3-CLDN18.2 target cells [21]: 47%; ADCC Maximum killing (%), PBMC effector cells, NUGC-4 target cells [21]: 22.5%; ADCC EC50, PBMC effector cells, KATOIII target cells [12]: 38.4 nM; ADCC Maximum killing (%), PBMC effector cells, KATOIII target cells [12]: 76.8%; ADCC EC50, Jurkat-CD16a v158-NFAT-luciferase effector cells, KATOIII target cells [13]: 0.043 nM; ADCC EC50, Jurkat-CD16a v158-NFAT-luciferase effector cells, U2OS-CLDN18.2 target cells [13]: 0.018 nM; CDC EC50, NIH-3T3-CLDN18.2 target cells [22]: 0.27 nM; EC50 [16]: 21.2 nM

Second part, the binder before the results:

Row | Binder | EC50 [1] | EC50 [2] | EC50 [3] | CDC EC50, KATOIII target cells [4] | CDC EC50, U2OS-CLDN18.2 target cells [4] | EC50 [5] | EC50 [6] | CDC EC50, NIH-3T3-CLDN18.2 target cells [7] | EC50 [8] | ADCC EC50, Jurkat-CD16a v158-NFAT-luciferase effector cells, NIH-3T3-CLDN18.2 target cells [9] | ADCC EC50, Jurkat-CD16a v158-NFAT-luciferase effector cells, NUGC-4 target cells [9] | EC50 [10] | ADCC EC50, PBMC effector cells, NUGC-4 target cells [12] | ADCC EC50, Jurkat-CD16a v158-NFAT-luciferase effector cells, KATOIII target cells [14] | ADCC EC50, Jurkat-CD16a v158-NFAT-luciferase effector cells, NUGC-4 target cells [14] | ADCC EC50, Jurkat-CD16a v158-NFAT-luciferase effector cells, U2OS-CLDN18.2 target cells [14] | MFI [18] | EC50 [19] | binding result [20] | ADCC Maximum killing (%), PBMC effector cells, NUGC-4 target cells [12] | also measured
3 | IMAB362 (antibody, human IgG1, kappa, V domains shown, Positive control, prepared in-house; also called Claudiximab; TMAB362 [sic]) VH: QVQLQQPGAELVRPGASVKLSCKASGYTFTSYWINWVKQRPGQGLEWIGNIYPSDSYTNYNQKFKDKATLTVDKSSSTAYMQLSSPTSEDSAVYYCTRSWRGNSFDYWGQGTTLTVSS VL: DIVMTQSPSSLTVTAGEKVTMSCKSSQSLLNSGNQKNYLTWYQQKPGQPPKLLIYWASTRESGVPDRFTGSGSGTDFTLTISSVQAEDLAVYYCQNDYSYPFTFGSGTKLEIKR | 22.9 nM | 16 nM | 81.3 nM | 12.8 nM | 9.79 nM | 567 nM | 16.3 nM | 24.4 nM | 567 nM | 0.023 nM | 0.856 nM | 293 nM | 37.1 nM | 1.52 nM | 12 nM | 0.05 nM | 6220 | ~26900 nM |  | 29.1% | EC50 [11]: 38.2 nM; ADCC EC50, PBMC effector cells, KATOIII target cells [12]: ~0.123 nM; ADCC Maximum killing (%), PBMC effector cells, KATOIII target cells [12]: 20.7%; ADCC EC50, Jurkat-CD16a v158-NFAT-luciferase effector cells, KATOIII target cells [13]: 16.9 nM; ADCC EC50, Jurkat-CD16a v158-NFAT-luciferase effector cells, U2OS-CLDN18.2 target cells [13]: 0.014 nM; EC50 [15]: 16.2 nM; EC50 [16]: 1450 nM; EC50 [17]: 202 nM
4 | chimeric antibody xi40F6 (antibody, human IgG1, kappa, V domains shown, Mouse variable regions on human IgG1/kappa; defucosylated, expressed in FUT8-knockout CHO-S cells; also called chimeric 40F6) VH: QVQLKESGPGLVAPSQSLSITCTVSGFSLTSYGVYWVRQSPGKGLEWLGVVWAGGNTNYNSALMSRLSISKDNSKSQVFLKMNSLQTDDTAMYYCARDRGRLLAMDYWGQGTSVTVSS VL: DVVMTQSPSSLSVSAGEKVTMSCKSSQSLLNSGNQKNYLAWYQQKPGQPPKLLIYGASTRESGVPDRFTGSGSGTDFTLTISSVQAEDLAVYYCQNDHFFPFTFGSGTKLEIKR | 4.47 nM |  |  | 0.127 nM | 1.07 nM | 12.5 nM |  | 0.29 nM | 12.5 nM | 0.014 nM | ~0.014 nM |  | 0.8 nM | 0.03 nM | 0.147 nM | 0.032 nM | 7070 | 5.97 nM | no binding (tested: 200 nM) | 45.2% | EC50 [11]: 7.02 nM

— patent US20240409629A1 (CHIA TAI TIANQING PHARMACEUTICAL GROUP, published 2024)
